Test results as given in patent US20080227698A1, “OLIGOPEPTIDES FOR TREATMENT OF OSTEOPOROSIS AND OTHER BONE DISEASES AND METHODS THEREOF” (Washington University, priority 2005, published 2008).

Tests used:
LRP6 = LRP6 (Homo sapiens, UniProt O75581); experiment: ^125I-Mesd binding to LRP6, competition by Mesd or oligopeptide (FIG. 10C); parameters: plasmid pCS-Myc-hLRP6 containing the full-length human LRP6 cDNA; HA; expressed in transfected cells; host or cells: human HT1080 cells, stably transduced (pLNCX2 retroviral vector); details: compared with LRP5 (up to about 10-fold)
Chain of LRP6 (O75581 20-1613): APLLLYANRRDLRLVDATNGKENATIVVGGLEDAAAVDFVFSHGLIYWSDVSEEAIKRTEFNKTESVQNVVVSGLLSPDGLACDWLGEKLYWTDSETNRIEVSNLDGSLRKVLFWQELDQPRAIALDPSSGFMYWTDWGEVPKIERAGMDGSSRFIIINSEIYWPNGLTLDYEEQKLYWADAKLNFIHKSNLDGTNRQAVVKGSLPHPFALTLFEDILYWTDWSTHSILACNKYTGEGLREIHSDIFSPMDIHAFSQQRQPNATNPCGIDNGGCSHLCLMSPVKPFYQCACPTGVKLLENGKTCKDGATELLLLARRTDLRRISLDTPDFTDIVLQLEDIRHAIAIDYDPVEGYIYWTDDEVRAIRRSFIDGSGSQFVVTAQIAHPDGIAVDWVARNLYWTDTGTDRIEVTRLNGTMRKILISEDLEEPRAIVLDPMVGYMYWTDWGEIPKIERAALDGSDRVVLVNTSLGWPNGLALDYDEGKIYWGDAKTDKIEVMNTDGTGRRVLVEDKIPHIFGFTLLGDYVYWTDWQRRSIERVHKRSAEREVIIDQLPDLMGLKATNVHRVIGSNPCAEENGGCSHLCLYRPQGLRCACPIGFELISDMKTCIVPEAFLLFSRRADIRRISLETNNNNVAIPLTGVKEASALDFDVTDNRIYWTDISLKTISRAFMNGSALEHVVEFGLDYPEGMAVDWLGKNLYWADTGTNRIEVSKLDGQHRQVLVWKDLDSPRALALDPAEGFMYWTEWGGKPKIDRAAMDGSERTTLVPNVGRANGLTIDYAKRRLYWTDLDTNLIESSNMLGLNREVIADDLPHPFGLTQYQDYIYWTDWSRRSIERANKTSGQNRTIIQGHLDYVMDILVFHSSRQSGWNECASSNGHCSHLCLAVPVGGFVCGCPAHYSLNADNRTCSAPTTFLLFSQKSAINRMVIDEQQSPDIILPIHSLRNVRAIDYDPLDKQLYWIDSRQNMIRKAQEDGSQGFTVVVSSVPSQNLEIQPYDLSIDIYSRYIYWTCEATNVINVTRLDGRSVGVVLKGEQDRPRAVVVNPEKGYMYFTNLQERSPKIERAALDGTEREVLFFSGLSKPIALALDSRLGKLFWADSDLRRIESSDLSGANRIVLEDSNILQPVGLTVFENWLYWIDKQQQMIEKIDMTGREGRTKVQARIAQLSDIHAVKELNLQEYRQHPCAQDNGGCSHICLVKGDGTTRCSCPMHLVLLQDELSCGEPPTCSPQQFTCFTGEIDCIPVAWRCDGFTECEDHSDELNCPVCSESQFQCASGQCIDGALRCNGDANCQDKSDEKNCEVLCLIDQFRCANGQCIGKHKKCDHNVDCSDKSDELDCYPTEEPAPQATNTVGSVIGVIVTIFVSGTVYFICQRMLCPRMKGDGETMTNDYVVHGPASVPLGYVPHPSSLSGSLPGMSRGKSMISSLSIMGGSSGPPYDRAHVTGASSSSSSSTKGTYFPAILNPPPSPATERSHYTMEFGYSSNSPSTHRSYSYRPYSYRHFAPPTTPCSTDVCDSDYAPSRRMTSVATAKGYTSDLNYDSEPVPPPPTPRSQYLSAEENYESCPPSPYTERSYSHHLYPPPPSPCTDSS
Protocol: In order to investigate the binding of Mesd polypeptide and an Mesd oligopeptide to either LRP5 or LRP6, binding assays were performed using ^125I-Mesd or ^125I-DKK1 (FIG. 10).

[1] = system: TCF/LEF transcriptional activity; experiment: TOP-FLASH luciferase reporter assay in HEK293 cells cotransfected with LRP6 and Mesd constructs; assay type: cell-based; details: luciferase 48 hours after transfection
Protocol: HEK293 cells were plated into six-well plates. For each well, […] of the TOP-[…] luciferase construct (Upstate Biotechnology) was cotransfected with 0.8 μg Mesd-expressing vector, 0.8 μg Mesd mutant-expressing vector, or empty vector. A β-galactosidase-expressing vector (Promega, Madison, Wis.) was included as an internal control for transfection efficiency. After 48 hours, cells were lysed and both luciferase and β-galactosidase activities were determined with enzyme assay kits (Promega). The luciferase activity was determined with a luminometer using the Dual Luciferase Assay system (Promega). Luciferase activity was normalized to the activity of the P-galactosidase.
Activation of canonical Wnt signaling leads to the stabilization of P-catenin and regulation of gene transcription through transcription regulators including lymphoid-enhancing factor (LEF)-1 and T-cell factors (TCF). The TOP-FLASH luciferase reporter contains TCF-binding sites and can be directly activated by the P-catenin/TCF complex (Korinek et al., 1997). LRP6 is cell surface receptor, and only the mature receptor can reach the cell surface and modulate Wnt signaling (Cong et al., 2004). Next examined was the effect of Mesd_C on Wnt signaling using the TOP-FLASH luciferase reporter assay in HEK293 cells. […] The luciferase activity was measured 48 hours after transfection. […]

Reduction of binding of ^125I-Mesd to LRP6 (LRP6): even greater reduction
B1: Mesd: recombinant wild-type mouse Mesd, polyhistidine tail at the N-terminus, lacks the signal peptide, expressed in E. coli (protein)
chain: ADTPGEATPPPRKKKDIRDYNDADMARLLEQWEKDDDIEEGDLPEHKRPSAPIDFSKLDPGKPESILKMTKKGKTLMMFVTVSGNPTEKETEEITSLWQGSLFNANYDVQRFIVGSDRAIFMLRDGSYAWEIKDFLVSQDRCAEVTLEGQMYPGKGGGSKEKNKTKPEKAKKKEGDRKPRASKEDNRAGSRREDL
modifications: left off: small tags and cut ends
notes: recombinant wild-type mouse Mesd, polyhistidine tail at the N-terminus, lacks the signal peptide, expressed in E. coli
TCF/LEF transcriptional activity (TOP-FLASH) on coexpression [1]: significantly enhanced
